Test results: the Immune Epitope Database (IEDB)

What was measured:
HLA-A*01:01 = assay: IEDB peptide-MHC binding, purified MHC/competitive/radioactivity; filed as Kd, often an IC50 or EC50 that approximates it; ≥ and ≤ were set here for values at or beyond the usual limits of such assays
HLA-A*29:02 = assay: as above
HLA-A*23:01 = assay: as above
HLA-A*26:01 = assay: as above
HLA-A*30:02 = assay: as above
HLA-A*24:02 = assay: as above
HLA-B*08:01 = assay: as above
HLA-A*68:02 = assay: as above
HLA-B*51:01 = assay: as above
HLA-B*53:01 = assay: as above; settings: source organism: Dengue virus 1 Brazil/97-11/1997
HLA-A*30:01 = assay: as above
HLA-B*57:01 = assay: IEDB peptide-MHC binding, purified MHC/direct/fluorescence; filed as Kd, often an IC50 or EC50 that approximates it; ≥ and ≤ were set here for values at or beyond the usual limits of such assays; settings: source organism: Salmonella enterica
HLA-B*58:01 = assay: as above; settings: source organism: Salmonella enterica
HLA-A*02:02 = assay: IEDB peptide-MHC binding, purified MHC/competitive/radioactivity; filed as Kd, often an IC50 or EC50 that approximates it; ≥ and ≤ were set here for values at or beyond the usual limits of such assays
HLA-A*02:03 = assay: as above
HLA-A*02:06 = assay: as above
HLA-A*02:01 [1] = assay: IEDB peptide-MHC binding, purified MHC/competitive/fluorescence; filed as Kd, often an IC50 or EC50 that approximates it; ≥ and ≤ were set here for values at or beyond the usual limits of such assays
HLA-A*02:01 [2] = assay: IEDB peptide-MHC binding, purified MHC/competitive/fluorescence; ≥ and ≤ were set here for values at or beyond the usual limits of such assays
[3] = source organism: SARS coronavirus Tor2
[4] = source organism: Vaccinia virus WR
[5] = source organism: Dengue virus 3 Martinique/1243/1999
[6] = source organism: Dengue virus 1 Brazil/97-11/1997
[7] = source organism: Dengue virus 3 Singapore/8120/1995
[8] = source organism: Mammarenavirus whitewaterense
[9] = source organism: Hepacivirus hominis
[10] = source organism: Mammarenavirus mopeiaense
[11] = source organism: Hepatitis C virus (isolate 1)
[12] = source organism: Trypanosoma cruzi

Q: Which results are given for SYREAACCHL?
A: Kd (HLA-A*01:01; [3]): ≥ 25.1 µM; Kd (HLA-A*29:02; [3]): ≥ 28900 nM; Kd (HLA-A*23:01; [3]): 643 nM; Kd (HLA-A*26:01; [3]): ≥ 69.7 µM; Kd (HLA-A*30:02; [3]): 7040 nM; Kd (HLA-A*24:02; [3]): 221 nM

Q: For MFISLFMIL, which Kd (HLA-B*08:01; [4]) is on record?
A: 223 nM

Q: How did the Kd (HLA-A*68:02; [5]) turn out when TATLILAGV was run?
A: 1.07 nM

Q: Which Kd (HLA-B*51:01; [6]) does the source give for FPGKTVWFV here?
A: 6.36 µM

Q: And the Kd (HLA-B*53:01)?
A: 86.1 nM

Q: With HQHLAIMFK as the sequence, how does the Kd (HLA-A*30:01; [4]) read?
A: 4.99 nM

Q: With RSRCRLHHL as the sequence, how does the Kd (HLA-B*57:01) read?
A: 3.54 µM

Q: What about the Kd (HLA-B*58:01) of the same sequence?
A: 598 nM

Q: Which Kd (HLA-A*68:02; [5]) does the source give for TSMSFSCIAI here?
A: 1.23 nM

Q: How did the Kd (HLA-A*01:01; [3]) turn out when YLALYNKYKY was run?
A: 0.244 µM

Q: What about the Kd (HLA-A*29:02; [3]) of the same sequence?
A: 43.2 nM

Q: And the Kd (HLA-A*23:01; [3])?
A: 11600 nM

Q: And the Kd (HLA-A*26:01; [3])?
A: 19.2 µM

Q: What about the Kd (HLA-A*30:02; [3]) of the same sequence?
A: 34.5 nM

Q: And the Kd (HLA-A*24:02; [3])?
A: 18600 nM

Q: For ALEAKIAQL, which Kd (HLA-A*02:02; source organism: Homo sapiens) is on record?
A: 14.8 nM

Q: What about the Kd (HLA-A*68:02; source organism: Homo sapiens) of the same sequence?
A: 7300 nM

Q: And the Kd (HLA-A*02:03; source organism: Homo sapiens)?
A: 46.7 nM

Q: And the Kd (HLA-A*02:06; source organism: Homo sapiens)?
A: 1100 nM

Q: MAISGDDCVV was tested. Which Kd (HLA-B*51:01; source organism: Dengue virus 2 Jamaica/1409/1983) did it give?
A: 4.86 µM

Q: For QKQTQRSGVL, which Kd (HLA-B*08:01; [5]) is on record?
A: 5800 nM

Q: Which Kd (HLA-A*02:03; [7]) does the source give for LLVTHYAII here?
A: 39.2 nM

Q: What about the Kd (HLA-B*08:01; [7]) of the same sequence?
A: 667 nM

Q: What does the source list for NYCEGTTVVI?
A: Kd (HLA-A*23:01; [5]): 101 nM; Kd (HLA-A*24:02; [5]): 43.4 nM

Q: Which Kd (HLA-A*29:02; [8]) does the source give for PYIASRSQI here?
A: ≥ 78900 nM

Q: What about the Kd (HLA-A*23:01; [8]) of the same sequence?
A: 492 nM

Q: And the Kd (HLA-A*24:02; [8])?
A: 2810 nM

Q: How did the Kd (HLA-A*30:01; [4]) turn out when KYKPVYSYV was run?
A: 0.74 nM

Q: For LCLIPTVMAF, which Kd (HLA-A*23:01; source organism: Dengue virus 4 Dominica/814669/1981) is on record?
A: 454 nM

Q: Which Kd (HLA-A*02:01 [1]; source organism: Hepatitis C virus subtype 1b) does the source give for LLCPAGHAV here?
A: 12.4 nM

Q: What about the IC50 (HLA-A*02:01 [2]; [9]) of the same sequence?
A: 35.4 µM

Q: For SAKRITESI, which Kd (HLA-B*08:01; [4]) is on record?
A: 119 nM

Q: What does the source list for PYIASRTSIV?
A: Kd (HLA-A*01:01; [10]): ≥ 44.5 µM; Kd (HLA-A*29:02; [10]): ≥ 32600 nM; Kd (HLA-A*23:01; [10]): 1590 nM; Kd (HLA-A*26:01; [10]): ≥ 69.7 µM; Kd (HLA-A*30:02; [10]): ≥ 37300 nM; Kd (HLA-A*24:02; [10]): 2500 nM

Q: How did the Kd (HLA-A*68:02; source organism: Dengue virus 4 Philippines/H241/1956) turn out when ASMAICSAV was run?
A: 63.7 nM

Q: YEDQDALFAY was tested. Which Kd (HLA-A*01:01; [3]) did it give?
A: ≥ 92.6 µM

Q: And the Kd (HLA-A*29:02; [3])?
A: 530 nM

Q: And the Kd (HLA-A*23:01; [3])?
A: ≥ 70000 nM

Q: And the Kd (HLA-A*26:01; [3])?
A: ≥ 64.8 µM

Q: What about the Kd (HLA-A*30:02; [3]) of the same sequence?
A: 2030 nM

Q: And the Kd (HLA-A*24:02; [3])?
A: ≥ 70300 nM

Q: For TARGARRMA, which Kd (HLA-A*30:01; [6]) is on record?
A: 6300 nM

Q: With SRHQRLHDE as the sequence, how does the Kd (HLA-B*08:01; [4]) read?
A: 453 nM

Q: With RTTWALCESI as the sequence, how does the Kd (HLA-A*68:02; [6]) read?
A: 139 nM

Q: How did the Kd (HLA-A*30:01; [5]) turn out when KADRVIDPRR was run?
A: 5180 nM

Q: For ALRSRIREL, which Kd (HLA-B*08:01; [4]) is on record?
A: 0.455 nM

Q: Which Kd (HLA-A*01:01; [3]) does the source give for VYKVYYGNAL here?
A: ≥ 37.2 µM

Q: And the Kd (HLA-A*29:02; [3])?
A: 7770 nM

Q: What about the Kd (HLA-A*23:01; [3]) of the same sequence?
A: 746 nM

Q: What about the Kd (HLA-A*26:01; [3]) of the same sequence?
A: 11.7 µM

Q: And the Kd (HLA-A*30:02; [3])?
A: 5980 nM

Q: And the Kd (HLA-A*24:02; [3])?
A: 203 nM

Q: For TYASALWEI, which Kd (HLA-A*01:01; [3]) is on record?
A: ≥ 78.1 µM

Q: And the Kd (HLA-A*29:02; [3])?
A: 14200 nM

Q: And the Kd (HLA-A*23:01; [3])?
A: 8140 nM

Q: And the Kd (HLA-A*26:01; [3])?
A: ≥ 77.9 µM

Q: What about the Kd (HLA-A*30:02; [3]) of the same sequence?
A: ≥ 81100 nM

Q: And the Kd (HLA-A*24:02; [3])?
A: ≥ 21500 nM

Q: How did the Kd (HLA-A*68:02; source organism: Homo sapiens) turn out when ILEDQNCKL was run?
A: ≥ 60000 nM

Q: With ELREIFRRL as the sequence, how does the Kd (HLA-B*08:01; [4]) read?
A: 26.5 nM

Q: With MWLGARYLEF as the sequence, how does the Kd (HLA-A*23:01; [5]) read?
A: 3.54 nM

Q: And the Kd (HLA-A*24:02; [5])?
A: 97.7 nM

Q: With APALQEAYY as the sequence, how does the Kd (HLA-A*01:01; [3]) read?
A: ≥ 109 µM

Q: And the Kd (HLA-A*29:02; [3])?
A: 1990 nM

Q: What about the Kd (HLA-A*23:01; [3]) of the same sequence?
A: ≥ 77800 nM

Q: And the Kd (HLA-A*26:01; [3])?
A: ≥ 65.6 µM

Q: What about the Kd (HLA-A*30:02; [3]) of the same sequence?
A: 365 nM

Q: What about the Kd (HLA-A*24:02; [3]) of the same sequence?
A: ≥ 77600 nM

Q: With ILDSFDPLV as the sequence, how does the Kd (HLA-A*02:01 [1]; [9]) read?
A: 0.6 nM

Q: How did the Kd (HLA-A*01:01; [3]) turn out when LDESFLGRY was run?
A: 2.61 µM

Q: What about the Kd (HLA-A*29:02; [3]) of the same sequence?
A: 1540 nM

Q: What about the Kd (HLA-A*23:01; [3]) of the same sequence?
A: ≥ 77800 nM

Q: And the Kd (HLA-A*26:01; [3])?
A: 12.7 µM

Q: What about the Kd (HLA-A*30:02; [3]) of the same sequence?
A: 163 nM

Q: And the Kd (HLA-A*24:02; [3])?
A: ≥ 77600 nM

Q: NLEKKITNV was tested. Which Kd (HLA-A*02:01 [1]; source organism: Vaccinia virus WR 65-16) did it give?
A: 216 nM

Q: CINGVCWTV was tested. Which Kd (HLA-A*02:02; [11]) did it give?
A: 3350 nM

Q: And the Kd (HLA-A*68:02; [11])?
A: 3780 nM

Q: What about the Kd (HLA-A*02:03; [11]) of the same sequence?
A: 6440 nM

Q: What about the Kd (HLA-A*02:06; [11]) of the same sequence?
A: 4370 nM

Q: What about the IC50 (HLA-A*02:01 [2]; source organism: Hepatitis C virus genotype 1) of the same sequence?
A: ≥ 50 µM

Q: How did the Kd (HLA-B*08:01; [4]) turn out when NVMKRINCF was run?
A: 19.8 nM

Q: Which Kd (HLA-B*08:01; [6]) does the source give for VNREGKIVGL here?
A: ≥ 35600 nM

Q: With FVNHRFTLV as the sequence, how does the Kd (HLA-A*02:02; [12]) read?
A: 81.8 nM

Q: And the Kd (HLA-A*68:02; [12])?
A: 89.3 nM

Q: And the Kd (HLA-A*02:03; [12])?
A: 1.38 nM

Q: And the Kd (HLA-A*02:06; [12])?
A: 6.57 nM
